The source of these data is paper doi:10.1101/2021.11.20.466133 (bioRxiv, 2021).

The data set deals with the molecule itself. Description: SEC-MALS. (Size exclusion chromatography separates by hydrodynamic size, large species first.)

Usually stoichiometry N stands for a count of units in the complex or per binding partner.

B1: Mycobacterium smegmatis c-di-AMP hydrolase (phosphodiesterase) MsPDE (enzyme)
chain: MPVTTTDPKTGLLTGPDAQIAGARVDARGAADLLTAASSVSVICHVYPDADTIGAGLALAQVLAASGKHVEVSFATPAQLPESLQSLPGGHLLVAPEAMRRDADLVVTVDIPSINRLGALSGLAGPGREVLVIDHHASNQLFGTANYIDPSADSTTMLVAELLDAWGKPIDEKVAHCLYAGLTTDTGSFRWATARAHRLAARLVELGVDNASISRTLLDTHPFAWLPMLSRVLATARLLPDALDGRGFVYAVVPHDEWSEARPEEVESIVDIVRTTQQAEVAAVFKEIEPMHWSVSMRAKSVNLASVASAFGGGGHPHAAGYSATGSADDVVQALARALG
B1: the “stoichiometry N” value amounted to 2.
